In publication PMC8369199:
pKd: −log10 of the molar value. Blank lines part the entries; values can stand above or below the substance they belong to.

Legend:
[1] = target: MMP-9 cleaved TRZ-Fc4 (human); assay: BLI; antibody variant on anti-human Fab-CH1 (Fab2G) sensors; FcγRI 6.25, 12.5, 25, 50 nM, then dissociation in kinetics buffer; 1:1 Langmuir model
trastuzumab (human) = assay: as above
[2] = target: human complement C1q (human) (UniProt P02745); assay: BLI
[3] = target: FcγRIIIa V158 (high-affinity variant of FcγRIIIa) on engineered ADCC reporter effector cells

His-tagged human Fc gamma RI (CD64), sequence (P12314 16-292): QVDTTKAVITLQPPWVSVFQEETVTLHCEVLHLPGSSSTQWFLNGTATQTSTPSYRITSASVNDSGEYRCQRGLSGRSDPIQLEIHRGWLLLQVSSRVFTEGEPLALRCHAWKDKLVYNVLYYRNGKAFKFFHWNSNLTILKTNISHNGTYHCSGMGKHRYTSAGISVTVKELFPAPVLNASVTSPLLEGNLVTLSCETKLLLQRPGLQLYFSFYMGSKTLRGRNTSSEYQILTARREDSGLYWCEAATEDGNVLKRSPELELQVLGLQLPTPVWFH
human complement C1q (human), sequence (P02745 23-245, chain 1 of 3): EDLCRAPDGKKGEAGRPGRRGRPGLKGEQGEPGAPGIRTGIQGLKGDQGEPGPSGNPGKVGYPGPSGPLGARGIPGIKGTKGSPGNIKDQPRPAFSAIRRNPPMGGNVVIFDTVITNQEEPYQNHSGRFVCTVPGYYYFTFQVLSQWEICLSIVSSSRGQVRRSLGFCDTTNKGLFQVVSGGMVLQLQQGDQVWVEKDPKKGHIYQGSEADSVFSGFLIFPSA
human complement C1q (human), sequence (P02746 28-253, chain 2 of 3, further chain): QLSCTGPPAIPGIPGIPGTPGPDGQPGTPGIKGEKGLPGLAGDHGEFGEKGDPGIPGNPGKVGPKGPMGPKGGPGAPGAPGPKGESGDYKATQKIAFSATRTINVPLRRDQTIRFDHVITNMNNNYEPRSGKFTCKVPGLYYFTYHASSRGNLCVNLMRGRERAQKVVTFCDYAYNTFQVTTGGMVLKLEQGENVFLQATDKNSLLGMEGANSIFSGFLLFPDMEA
human complement C1q (human), sequence (P02747 29-245, chain 3 of 3, further chain): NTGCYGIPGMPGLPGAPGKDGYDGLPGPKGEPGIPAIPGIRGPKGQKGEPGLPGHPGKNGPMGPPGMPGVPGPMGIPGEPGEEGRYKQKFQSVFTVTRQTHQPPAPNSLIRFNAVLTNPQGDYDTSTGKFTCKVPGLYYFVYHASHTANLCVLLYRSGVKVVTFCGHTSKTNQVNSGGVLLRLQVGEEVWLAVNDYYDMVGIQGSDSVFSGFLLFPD

pKd [1]: 8.80
pKd (trastuzumab (human)): 8.89
Substance: His-tagged human Fc gamma RI (CD64) (from UniProt P12314 16-292) (receptor)

pKd [2]: 6.68
Substance: trastuzumab

ADCC reporter assay, fold induction, SK-BR-3 target cells, with MMP-2/MMP-9 inhibitor, antibody 10 fM to 100 nM; highest induction, reached at 1 nM (fold induction) [3]: 57.6
EC50 of ADCC reporter induction, SK-BR-3 target cells [3]: 0.039 nM
Substance: trastuzumab (antibody)
